T1: human TGFβ3 (human, UniProt P10600 301-412)
T1 sequence: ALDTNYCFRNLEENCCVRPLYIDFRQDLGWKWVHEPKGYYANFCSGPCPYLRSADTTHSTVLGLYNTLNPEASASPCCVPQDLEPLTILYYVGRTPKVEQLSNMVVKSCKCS

T2: human TGFβ2 (human, UniProt P61812 303-414)
T2 construct: also called TGFβ2 homodimer
T2 sequence: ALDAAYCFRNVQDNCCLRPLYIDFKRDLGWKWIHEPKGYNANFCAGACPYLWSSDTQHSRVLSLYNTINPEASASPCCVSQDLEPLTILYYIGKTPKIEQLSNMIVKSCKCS


Assays:
Assay in all cases: Biacore, immobilised TGFβ
[1] = target: T1, human TGFβ3
[2] = target: T3, human TGFβ1 (human, UniProt P01137 279-390)
T3 construct: also called TGFβ1 homodimer
T3 sequence (P01137 279-390 limits assumed): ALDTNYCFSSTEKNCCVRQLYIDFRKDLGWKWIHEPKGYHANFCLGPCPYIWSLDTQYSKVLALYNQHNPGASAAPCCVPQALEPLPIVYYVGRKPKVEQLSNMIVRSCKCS

[3] = target: T2, human TGFβ2

binding result [1] | binding result [2] | binding result [3] | Binder
no binding (tested: 50 nM) | no binding (tested: 50 nM) | no binding (tested: 50 nM) | A93R(LC) (antibody, V domains shown, GC1008 IgG4 variant, light chain substitution) VH: QVQLVQSGAEVKKPGSSVKVSCKASGYTFSSNVISWVRQAPGQGLEWMGGVIPIVDIANYAQRFKGRVTITADESTSTTYMELSSLRSEDTAVYYCASTLGLVLDAMDYWGQGTLVTVSS VL: ETVLTQSPGTLSLSPGERATLSCRASQSLGSSYLAWYQQKPGQAPRLLIYGASSRAPGIPDRFSGSGSGTDFTLTISRLEPEDFAVYYCQQYRDSPITFGQGTRLEIK
no binding (tested: 50 nM) | no binding (tested: 50 nM) | no binding (tested: 50 nM) | L104R (antibody, V domains shown, GC1008 IgG4 variant) VH: QVQLVQSGAEVKKPGSSVKVSCKASGYTFSSNVISWVRQAPGQGLEWMGGVIPIVDIANYAQRFKGRVTITADESTSTTYMELSSLRSEDTAVYYCASTLGLVRDAMDYWGQGTLVTVSS VL: ETVLTQSPGTLSLSPGERATLSCRASQSLGSSYLAWYQQKPGQAPRLLIYGASSRAPGIPDRFSGSGSGTDFTLTISRLEPEDFAVYYCQQYADSPITFGQGTRLEIK
no binding (tested: 50 nM) | no binding (tested: 50 nM) | no binding (tested: 50 nM) | L104K (antibody, V domains shown, GC1008 IgG4 variant) VH: QVQLVQSGAEVKKPGSSVKVSCKASGYTFSSNVISWVRQAPGQGLEWMGGVIPIVDIANYAQRFKGRVTITADESTSTTYMELSSLRSEDTAVYYCASTLGLVKDAMDYWGQGTLVTVSS VL: ETVLTQSPGTLSLSPGERATLSCRASQSLGSSYLAWYQQKPGQAPRLLIYGASSRAPGIPDRFSGSGSGTDFTLTISRLEPEDFAVYYCQQYADSPITFGQGTRLEIK
no binding (tested: 50 nM) | no binding (tested: 50 nM) | no binding (tested: 50 nM) | V103R (antibody, V domains shown, GC1008 IgG4 variant) VH: QVQLVQSGAEVKKPGSSVKVSCKASGYTFSSNVISWVRQAPGQGLEWMGGVIPIVDIANYAQRFKGRVTITADESTSTTYMELSSLRSEDTAVYYCASTLGLRLDAMDYWGQGTLVTVSS VL: ETVLTQSPGTLSLSPGERATLSCRASQSLGSSYLAWYQQKPGQAPRLLIYGASSRAPGIPDRFSGSGSGTDFTLTISRLEPEDFAVYYCQQYADSPITFGQGTRLEIK

Reference: US20170342144A1 (Sanofi, published 2017)
